Measurements published in patent publication US20250333531A1.

How the values were obtained:
[1] = target: biotinylated soluble human FcRn (human) (UniProt P55899); test: ELISA: IgG coated at 1000-0.45 ng/ml, biotinylated soluble human FcRn 250 ng/ml pre-complexed with AP-streptavidin, pH 7.4, absorbance 405 nm
[2] = target: biotinylated truncated soluble human FcγRI (human) (UniProt P12314); test: ELISA: IgG coated at 10000-4.5 ng/ml, biotinylated truncated soluble human FcγRI 250 ng/ml pre-complexed with AP-streptavidin, absorbance 405 nm
Chain of biotinylated truncated soluble human FcγRI (human) (P12314 16-292): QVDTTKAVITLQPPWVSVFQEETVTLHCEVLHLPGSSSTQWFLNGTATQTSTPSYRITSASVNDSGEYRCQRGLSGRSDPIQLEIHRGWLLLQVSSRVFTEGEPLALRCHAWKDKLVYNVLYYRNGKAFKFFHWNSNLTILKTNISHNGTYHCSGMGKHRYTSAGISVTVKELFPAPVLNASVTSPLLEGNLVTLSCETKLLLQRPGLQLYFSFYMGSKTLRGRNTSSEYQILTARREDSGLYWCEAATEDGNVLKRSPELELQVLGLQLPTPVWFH

[3] = target: biotinylated truncated soluble human FcγRIIIa-V158 (human) (UniProt P08637); test: ELISA: IgG coated at 10000-4.5 ng/ml, biotinylated truncated soluble human FcγRIIIa-V158 250 ng/ml pre-complexed with AP-streptavidin, absorbance 405 nm
[4] = target: biotinylated truncated soluble human FcγRIIa-R131 (human) (UniProt P12318); test: ELISA: IgG coated at 10000-4.5 ng/ml, biotinylated truncated soluble human FcγRIIa-R131 250 ng/ml pre-complexed with AP-streptavidin, absorbance 405 nm
Chain of biotinylated truncated soluble human FcγRIIa-R131 (human) (P12318 34-217 H167R): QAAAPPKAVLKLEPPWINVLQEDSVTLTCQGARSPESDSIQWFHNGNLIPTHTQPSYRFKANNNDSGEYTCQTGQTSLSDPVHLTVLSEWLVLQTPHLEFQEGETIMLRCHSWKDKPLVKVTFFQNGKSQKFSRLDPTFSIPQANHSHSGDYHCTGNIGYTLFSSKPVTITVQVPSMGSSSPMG

[5] = target: FcγRIIIa-V158 on Promega Jurkat effector cells (UniProt P08637); test: cell-based or functional assay
[6] = target: biotinylated truncated soluble human FcγRIIa-H131 (human) (UniProt P12318); test: ELISA: IgG coated at 10000-4.5 ng/ml, biotinylated truncated soluble human FcγRIIa-H131 250 ng/ml pre-complexed with AP-streptavidin, absorbance 405 nm
Chain of biotinylated truncated soluble human FcγRIIa-H131 (human) (P12318 34-217): as the sequence (P12318 34-217 H167R) above, with R134H counted along it

[7] = target: biotinylated truncated soluble human FcγRIIb (human) (UniProt P31994); test: ELISA: IgG coated at 10000-4.5 ng/ml, biotinylated truncated soluble human FcγRIIb 250 ng/ml pre-complexed with AP-streptavidin, absorbance 405 nm
Chain of biotinylated truncated soluble human FcγRIIb (human) (P31994 43-217): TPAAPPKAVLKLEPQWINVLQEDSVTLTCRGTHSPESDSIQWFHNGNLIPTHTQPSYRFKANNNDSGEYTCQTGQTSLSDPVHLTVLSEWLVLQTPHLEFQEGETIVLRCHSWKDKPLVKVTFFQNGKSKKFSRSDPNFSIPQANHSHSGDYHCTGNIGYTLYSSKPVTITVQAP

[8] = target: CD20 (UniProt P11836); test: flow cytometry, FITC-labelled antibody on Daudi and SU-DHL-6 cells
Chain of CD20 (P11836 whole entry): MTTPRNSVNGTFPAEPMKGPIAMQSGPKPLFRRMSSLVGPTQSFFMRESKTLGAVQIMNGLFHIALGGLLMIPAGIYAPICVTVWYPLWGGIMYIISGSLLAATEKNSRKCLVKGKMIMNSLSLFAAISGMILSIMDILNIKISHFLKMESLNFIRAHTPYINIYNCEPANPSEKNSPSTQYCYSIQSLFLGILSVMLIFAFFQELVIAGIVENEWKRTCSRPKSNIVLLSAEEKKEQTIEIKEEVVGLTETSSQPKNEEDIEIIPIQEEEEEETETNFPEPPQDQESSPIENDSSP

[9] = target: CD20 (UniProt P11836); test: flow cytometry on CLL patient sample CLL177, FITC-rituximab at 10 µg per 10^6 cells, median fluorescence intensity, background corrected
[10] = target: CD20 (UniProt P11836); test: flow cytometry on CLL patient sample CLL187, FITC-rituximab at 10 µg per 10^6 cells, median fluorescence intensity, background corrected
[11] = target: human CD37 (human) (UniProt P11049); test: flow cytometry on Ramos cells, isotype control, MFI normalised to chHH1-DOTA (blank supernatant 28.3%)
Chain of human CD37 (human) (P11049 whole entry): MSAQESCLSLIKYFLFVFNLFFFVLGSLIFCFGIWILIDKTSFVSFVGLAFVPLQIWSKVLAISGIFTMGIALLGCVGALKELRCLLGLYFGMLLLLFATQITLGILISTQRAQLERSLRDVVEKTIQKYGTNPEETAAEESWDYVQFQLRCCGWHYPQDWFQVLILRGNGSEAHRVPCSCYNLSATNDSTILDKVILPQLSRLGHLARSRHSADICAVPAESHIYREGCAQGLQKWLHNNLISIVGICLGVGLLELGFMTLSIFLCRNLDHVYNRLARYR

Chain of biotinylated soluble human FcRn (human) (P55899 24-297 limits assumed, chain 1 of 2): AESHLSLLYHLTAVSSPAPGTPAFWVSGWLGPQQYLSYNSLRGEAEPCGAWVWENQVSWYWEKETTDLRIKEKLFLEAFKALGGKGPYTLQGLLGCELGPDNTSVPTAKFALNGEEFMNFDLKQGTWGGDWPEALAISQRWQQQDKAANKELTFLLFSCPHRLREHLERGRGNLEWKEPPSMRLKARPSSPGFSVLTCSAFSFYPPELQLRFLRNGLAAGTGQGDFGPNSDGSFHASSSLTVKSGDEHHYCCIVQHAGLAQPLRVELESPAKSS
Chain of biotinylated soluble human FcRn (human) (chain, as listed by the source limits assumed, chain 2 of 2): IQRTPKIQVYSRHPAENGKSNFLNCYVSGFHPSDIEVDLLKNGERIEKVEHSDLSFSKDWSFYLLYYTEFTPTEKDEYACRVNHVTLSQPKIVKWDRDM

Substance obinutuzumab (antibody) has an EC50 (read off the curve) [1] of 0.06 µg/mL, an EC50 (read off the curve) [2] of 0.6 µg/mL and an EC50 (read off the curve) [3] of 1 µg/mL. The EC50 (read off the curve) [4] was 2 µg/mL, the average potency of the ADCC response (Example 13) [5] was 1.1 nM and the EC50 (read off the curve) [6] was 0.6 µg/mL. It also gave an EC50 (read off the curve) [7] of 2 µg/mL.

With “Anti-CD20 (10F381 rituximab) FITC-conjugated rabbit/human chimeric Ab (antibody)” the saturation titer (µg per 10^6 cells) [8] was 10, the Avg. MFI (a.u.) [9] was 52 a.u and the Avg. MFI (a.u.) [10] was 68 a.u.

Work on isotype control antibody yielded a Normalized average binding (%) [11] of 29.5%.
